Experimental data from patent publication US20150344570A1 (published 2015).

Molecular target: T1, FcγRIIa R (human, UniProt P12318 34-217)
T1 construct: extracellular domain; also called FcgRIIa R type; 2aR
T1 sequence (looked up): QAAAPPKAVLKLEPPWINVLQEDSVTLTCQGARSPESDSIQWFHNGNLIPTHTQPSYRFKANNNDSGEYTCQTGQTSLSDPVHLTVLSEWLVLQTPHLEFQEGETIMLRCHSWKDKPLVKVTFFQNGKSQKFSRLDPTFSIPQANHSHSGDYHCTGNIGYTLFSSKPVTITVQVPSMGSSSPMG
Test: SPR (Biacore), captured antibody, FcγR as analyte; relative binding activity

B1: GpH7-A5/GpH7-B3 variant K334_12R/GpL16-k0 (antibody, human IgG1, kappa)
heavy 1: not shown
heavy 2: not shown
light: DIVMTQSPLSLPVTPGEPASISCQASESLVHSNRNTYLHWYLQKPGQSPQLLIYKVSNRFSGVPDRFSGSGSGTDFTLKISRVEAEDVGVYYCSQNTHVPPTFGQGTKVEIERTVAAPSVFIFPPSDEQLKSGTASVVCLLNNFYPREAKVQWKVDNALQSGNSQESVTEQDSKDSTYSLSSTLTLSKADYEKHKVYACEVTHQGLSSPVTKSFNRGEC
notes: also called He Ab K334_12R
Q: How did the He/Con_2aR turn out when B1 was run?
A: Its He/Con_2aR is 111 % (GpH7-A5/GpH7-B3/GpL16-k0 = 100).

B2: GpH7-A5/GpH7-B3 variant L328_02A/GpL16-k0 (antibody, human IgG1, kappa)
heavy 1: not shown
heavy 2: not shown
light: DIVMTQSPLSLPVTPGEPASISCQASESLVHSNRNTYLHWYLQKPGQSPQLLIYKVSNRFSGVPDRFSGSGSGTDFTLKISRVEAEDVGVYYCSQNTHVPPTFGQGTKVEIERTVAAPSVFIFPPSDEQLKSGTASVVCLLNNFYPREAKVQWKVDNALQSGNSQESVTEQDSKDSTYSLSSTLTLSKADYEKHKVYACEVTHQGLSSPVTKSFNRGEC
notes: also called He Ab L328_02A
Q: For B2, which He/Con_2aR is on record?
A: Its He/Con_2aR is 117 % (GpH7-A5/GpH7-B3/GpL16-k0 = 100).

B3: GpH7-A5/GpH7-B3 variant L234_09D/GpL16-k0 (antibody, human IgG1, kappa)
heavy 1: not shown
heavy 2: not shown
light: DIVMTQSPLSLPVTPGEPASISCQASESLVHSNRNTYLHWYLQKPGQSPQLLIYKVSNRFSGVPDRFSGSGSGTDFTLKISRVEAEDVGVYYCSQNTHVPPTFGQGTKVEIERTVAAPSVFIFPPSDEQLKSGTASVVCLLNNFYPREAKVQWKVDNALQSGNSQESVTEQDSKDSTYSLSSTLTLSKADYEKHKVYACEVTHQGLSSPVTKSFNRGEC
notes: also called He Ab L234_09D
Q: For B3, which He/Con_2aR is on record?
A: The He/Con_2aR was 122 % (GpH7-A5/GpH7-B3/GpL16-k0 = 100).

B4: GpH7-A5/GpH7-B3 variant K334_19Q/GpL16-k0 (antibody, human IgG1, kappa)
heavy 1: not shown
heavy 2: not shown
light: DIVMTQSPLSLPVTPGEPASISCQASESLVHSNRNTYLHWYLQKPGQSPQLLIYKVSNRFSGVPDRFSGSGSGTDFTLKISRVEAEDVGVYYCSQNTHVPPTFGQGTKVEIERTVAAPSVFIFPPSDEQLKSGTASVVCLLNNFYPREAKVQWKVDNALQSGNSQESVTEQDSKDSTYSLSSTLTLSKADYEKHKVYACEVTHQGLSSPVTKSFNRGEC
notes: also called He Ab K334_19Q
Q: B4 was tested. Which He/Con_2aR did it give?
A: Its He/Con_2aR is 109 % (GpH7-A5/GpH7-B3/GpL16-k0 = 100).

B5: GpH7-A5/GpH7-B3 variant L234_20W/GpL16-k0 (antibody, human IgG1, kappa)
heavy 1: not shown
heavy 2: not shown
light: DIVMTQSPLSLPVTPGEPASISCQASESLVHSNRNTYLHWYLQKPGQSPQLLIYKVSNRFSGVPDRFSGSGSGTDFTLKISRVEAEDVGVYYCSQNTHVPPTFGQGTKVEIERTVAAPSVFIFPPSDEQLKSGTASVVCLLNNFYPREAKVQWKVDNALQSGNSQESVTEQDSKDSTYSLSSTLTLSKADYEKHKVYACEVTHQGLSSPVTKSFNRGEC
notes: also called He Ab L234_20W
Q: How did the He/Con_2aR turn out when B5 was run?
A: Its He/Con_2aR is 108 % (GpH7-A5/GpH7-B3/GpL16-k0 = 100).

B6: GpH7-A5/GpH7-B3 variant K334_13S/GpL16-k0 (antibody, human IgG1, kappa)
heavy 1: not shown
heavy 2: not shown
light: DIVMTQSPLSLPVTPGEPASISCQASESLVHSNRNTYLHWYLQKPGQSPQLLIYKVSNRFSGVPDRFSGSGSGTDFTLKISRVEAEDVGVYYCSQNTHVPPTFGQGTKVEIERTVAAPSVFIFPPSDEQLKSGTASVVCLLNNFYPREAKVQWKVDNALQSGNSQESVTEQDSKDSTYSLSSTLTLSKADYEKHKVYACEVTHQGLSSPVTKSFNRGEC
notes: also called He Ab K334_13S
Q: With B6 as the binder, how does the He/Con_2aR read?
A: Its He/Con_2aR is 109 % (GpH7-A5/GpH7-B3/GpL16-k0 = 100).

B7: GpH7-A5/GpH7-B3 variant L328_13S/GpL16-k0 (antibody, human IgG1, kappa)
heavy 1: not shown
heavy 2: not shown
light: DIVMTQSPLSLPVTPGEPASISCQASESLVHSNRNTYLHWYLQKPGQSPQLLIYKVSNRFSGVPDRFSGSGSGTDFTLKISRVEAEDVGVYYCSQNTHVPPTFGQGTKVEIERTVAAPSVFIFPPSDEQLKSGTASVVCLLNNFYPREAKVQWKVDNALQSGNSQESVTEQDSKDSTYSLSSTLTLSKADYEKHKVYACEVTHQGLSSPVTKSFNRGEC
notes: also called He Ab L328_13S
Q: How did the He/Con_2aR turn out when B7 was run?
A: Its He/Con_2aR is 117 % (GpH7-A5/GpH7-B3/GpL16-k0 = 100).

B8: GpH7-A5/GpH7-B3 variant K334_20W/GpL16-k0 (antibody, human IgG1, kappa)
heavy 1: not shown
heavy 2: not shown
light: DIVMTQSPLSLPVTPGEPASISCQASESLVHSNRNTYLHWYLQKPGQSPQLLIYKVSNRFSGVPDRFSGSGSGTDFTLKISRVEAEDVGVYYCSQNTHVPPTFGQGTKVEIERTVAAPSVFIFPPSDEQLKSGTASVVCLLNNFYPREAKVQWKVDNALQSGNSQESVTEQDSKDSTYSLSSTLTLSKADYEKHKVYACEVTHQGLSSPVTKSFNRGEC
notes: also called He Ab K334_20W
Q: For B8, which He/Con_2aR is on record?
A: The He/Con_2aR was 105 % (GpH7-A5/GpH7-B3/GpL16-k0 = 100).

B9: GpH7-A5/GpH7-B3 variant L328_14T/GpL16-k0 (antibody, human IgG1, kappa)
heavy 1: not shown
heavy 2: not shown
light: DIVMTQSPLSLPVTPGEPASISCQASESLVHSNRNTYLHWYLQKPGQSPQLLIYKVSNRFSGVPDRFSGSGSGTDFTLKISRVEAEDVGVYYCSQNTHVPPTFGQGTKVEIERTVAAPSVFIFPPSDEQLKSGTASVVCLLNNFYPREAKVQWKVDNALQSGNSQESVTEQDSKDSTYSLSSTLTLSKADYEKHKVYACEVTHQGLSSPVTKSFNRGEC
notes: also called He Ab L328_14T
Q: With B9 as the binder, how does the He/Con_2aR read?
A: Its He/Con_2aR is 119 % (GpH7-A5/GpH7-B3/GpL16-k0 = 100).

B10: GpH7-A5/GpH7-B3 variant K334_10E/GpL16-k0 (antibody, human IgG1, kappa)
heavy 1: not shown
heavy 2: not shown
light: DIVMTQSPLSLPVTPGEPASISCQASESLVHSNRNTYLHWYLQKPGQSPQLLIYKVSNRFSGVPDRFSGSGSGTDFTLKISRVEAEDVGVYYCSQNTHVPPTFGQGTKVEIERTVAAPSVFIFPPSDEQLKSGTASVVCLLNNFYPREAKVQWKVDNALQSGNSQESVTEQDSKDSTYSLSSTLTLSKADYEKHKVYACEVTHQGLSSPVTKSFNRGEC
notes: also called He Ab K334_10E
Q: B10 was tested. Which He/Con_2aR did it give?
A: The He/Con_2aR was 106 % (GpH7-A5/GpH7-B3/GpL16-k0 = 100).

B11: GpH7-A5/GpH7-B3 variant L234_10E/GpL16-k0 (antibody, human IgG1, kappa)
heavy 1: not shown
heavy 2: not shown
light: DIVMTQSPLSLPVTPGEPASISCQASESLVHSNRNTYLHWYLQKPGQSPQLLIYKVSNRFSGVPDRFSGSGSGTDFTLKISRVEAEDVGVYYCSQNTHVPPTFGQGTKVEIERTVAAPSVFIFPPSDEQLKSGTASVVCLLNNFYPREAKVQWKVDNALQSGNSQESVTEQDSKDSTYSLSSTLTLSKADYEKHKVYACEVTHQGLSSPVTKSFNRGEC
notes: also called He Ab L234_10E
Q: For B11, which He/Con_2aR is on record?
A: The He/Con_2aR was 112 % (GpH7-A5/GpH7-B3/GpL16-k0 = 100).
